tested on: TifA RB69 (phage RB69); experiment: fluorescence polarization; settings: FP: 50 mM Tris-HCl pH 7.5, 150 mM NaCl, 1 mM DTT, 5% glycerol, 0.1 mg/ml BSA, 5 nM nucleic acid, 30 min at 37 C, SEC: 20 mM Tris-HCl pH 8.5, 50 mM NaCl

Substance | Kd [nM]
artJ RNA 15 nt | 2300
artJ RNA 30 nt | 850
artJ RNA 45 nt | 360
